{"source": "patent US20240270846A1", "about": "(published 2024)"}
{"target": "T1, CD3 epsilon homodimer protein (UniProt P07766 23-126)", "T1 construct": "Construct of the homodimer is not described; also called CD3 (CD3 epsilon)", "T1 sequence (P07766 23-126)": "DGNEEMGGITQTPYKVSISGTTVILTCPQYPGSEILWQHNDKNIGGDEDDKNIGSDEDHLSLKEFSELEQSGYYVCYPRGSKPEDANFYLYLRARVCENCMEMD", "experiment": "SPR Biacore T200, CD3e homodimer on chip, antibody analyte;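 further: CD3 epsilon homodimer amine-coupled on CM4 sensor chip, antibodies injected as analyte at 25 °C in HBS-EP+, ratio ≥0.8 taken as binding retained versus unaltered parent antibody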"}
{"binder": "GLS3000 H34E one-arm antibody (antibody, human IgG1, kappa, L234A L235A, N297A, name in Kabat numbering) light: DIVMTQSPLSLPVTPGEPASISCRSSQSLVHSNRNTYLEWYQQKPGQAPRLLIYKVSNRFSGVPDRFSGSGSGTDFTLKISRVEAEDVGVYYCGQGTQVPYTFGQGTKLEIKRTVAAPSVFIFPPSDEQLKSGTASVVCLLNNFYPREAKVQWKVDNALQSGNSQESVTEQDSKDSTYSLSSTLTLSKADYEKHKVYACEVTHQGLSSPVTKSFNRGEC heavy: QVQLVESGGGVVQPGRSLRLSCAASGFTFSNAWMHWVRQAPGKGLEWVAQIKAKSNNYATYYAESVKGRFTISRDDSKNSLYLQMNSLKTEDTAVYYCRYVHYGAYYGVDAWGQGTTVTVSSASTKGPSVFPLAPSSKSTSGGTAALGCLVKDYFPEPVTVSWNSGALTSGVHTFPAVLQSSGLYSLSSVVTVPSSSLGTQTYICNVNHKPSNTKVDKKVEPKSCDKTHTCPPCPAPEAAGGPSVFLFPPKPKDTLMISRTPEVTCVVVDVSHEDPEVKFNWYVDGVEVHNAKTKPREEQYASTYRVVSVLTVLHQDWLNGKEYKCKVSNKALPAPIEKTISKAKGQPREPQVYTLPPSRCELTKNQVSLSCAVKGFYPSDIAVEWESNGQPENNYKTTPPVLDSDGSFFLVSKLTVDKSRWQQGNVFSCSVMHEALHNHYTQKSLSLSPDYKDDDDK EPKSSDKTHTCPPCPAPELLGGPSVFLFPPKPKDTLMISRTPEVTCVVVDVSHEDPEVKFNWYVDGVEVHNAKTKPREEQYNSTYRVVSVLTVLHQDWLNGKEYKCKVSNKALPAPIEKTISKAKGQPREPQVCTLPPSRDELTKNQVSLWCLVKGFYPSDIAVEWESNGQPENNYKTTPPVLDSDGSFFLYSKLTVDKSRWQQGNVFSCSVMHEALHNRYTQKSLSLSP", "ratio of amounts bound (altered form/GLS3000)": 0.23}
{"binder": "GLS3000 H34F one-arm antibody (antibody, human IgG1, kappa, L234A L235A, N297A, name in Kabat numbering) light: DIVMTQSPLSLPVTPGEPASISCRSSQSLVHSNRNTYLFWYQQKPGQAPRLLIYKVSNRFSGVPDRFSGSGSGTDFTLKISRVEAEDVGVYYCGQGTQVPYTFGQGTKLEIKRTVAAPSVFIFPPSDEQLKSGTASVVCLLNNFYPREAKVQWKVDNALQSGNSQESVTEQDSKDSTYSLSSTLTLSKADYEKHKVYACEVTHQGLSSPVTKSFNRGEC heavy: QVQLVESGGGVVQPGRSLRLSCAASGFTFSNAWMHWVRQAPGKGLEWVAQIKAKSNNYATYYAESVKGRFTISRDDSKNSLYLQMNSLKTEDTAVYYCRYVHYGAYYGVDAWGQGTTVTVSSASTKGPSVFPLAPSSKSTSGGTAALGCLVKDYFPEPVTVSWNSGALTSGVHTFPAVLQSSGLYSLSSVVTVPSSSLGTQTYICNVNHKPSNTKVDKKVEPKSCDKTHTCPPCPAPEAAGGPSVFLFPPKPKDTLMISRTPEVTCVVVDVSHEDPEVKFNWYVDGVEVHNAKTKPREEQYASTYRVVSVLTVLHQDWLNGKEYKCKVSNKALPAPIEKTISKAKGQPREPQVYTLPPSRCELTKNQVSLSCAVKGFYPSDIAVEWESNGQPENNYKTTPPVLDSDGSFFLVSKLTVDKSRWQQGNVFSCSVMHEALHNHYTQKSLSLSPDYKDDDDK EPKSSDKTHTCPPCPAPELLGGPSVFLFPPKPKDTLMISRTPEVTCVVVDVSHEDPEVKFNWYVDGVEVHNAKTKPREEQYNSTYRVVSVLTVLHQDWLNGKEYKCKVSNKALPAPIEKTISKAKGQPREPQVCTLPPSRDELTKNQVSLWCLVKGFYPSDIAVEWESNGQPENNYKTTPPVLDSDGSFFLYSKLTVDKSRWQQGNVFSCSVMHEALHNRYTQKSLSLSP", "ratio of amounts bound (altered form/GLS3000)": 0.27}
{"binder": "GLS3000 H34G one-arm antibody (antibody, human IgG1, kappa, L234A L235A, N297A, name in Kabat numbering) light: DIVMTQSPLSLPVTPGEPASISCRSSQSLVHSNRNTYLGWYQQKPGQAPRLLIYKVSNRFSGVPDRFSGSGSGTDFTLKISRVEAEDVGVYYCGQGTQVPYTFGQGTKLEIKRTVAAPSVFIFPPSDEQLKSGTASVVCLLNNFYPREAKVQWKVDNALQSGNSQESVTEQDSKDSTYSLSSTLTLSKADYEKHKVYACEVTHQGLSSPVTKSFNRGEC heavy: QVQLVESGGGVVQPGRSLRLSCAASGFTFSNAWMHWVRQAPGKGLEWVAQIKAKSNNYATYYAESVKGRFTISRDDSKNSLYLQMNSLKTEDTAVYYCRYVHYGAYYGVDAWGQGTTVTVSSASTKGPSVFPLAPSSKSTSGGTAALGCLVKDYFPEPVTVSWNSGALTSGVHTFPAVLQSSGLYSLSSVVTVPSSSLGTQTYICNVNHKPSNTKVDKKVEPKSCDKTHTCPPCPAPEAAGGPSVFLFPPKPKDTLMISRTPEVTCVVVDVSHEDPEVKFNWYVDGVEVHNAKTKPREEQYASTYRVVSVLTVLHQDWLNGKEYKCKVSNKALPAPIEKTISKAKGQPREPQVYTLPPSRCELTKNQVSLSCAVKGFYPSDIAVEWESNGQPENNYKTTPPVLDSDGSFFLVSKLTVDKSRWQQGNVFSCSVMHEALHNHYTQKSLSLSPDYKDDDDK EPKSSDKTHTCPPCPAPELLGGPSVFLFPPKPKDTLMISRTPEVTCVVVDVSHEDPEVKFNWYVDGVEVHNAKTKPREEQYNSTYRVVSVLTVLHQDWLNGKEYKCKVSNKALPAPIEKTISKAKGQPREPQVCTLPPSRDELTKNQVSLWCLVKGFYPSDIAVEWESNGQPENNYKTTPPVLDSDGSFFLYSKLTVDKSRWQQGNVFSCSVMHEALHNRYTQKSLSLSP", "ratio of amounts bound (altered form/GLS3000)": 1.02}
{"binder": "GLS3000 H34I one-arm antibody (antibody, human IgG1, kappa, L234A L235A, N297A, name in Kabat numbering) light: DIVMTQSPLSLPVTPGEPASISCRSSQSLVHSNRNTYLIWYQQKPGQAPRLLIYKVSNRFSGVPDRFSGSGSGTDFTLKISRVEAEDVGVYYCGQGTQVPYTFGQGTKLEIKRTVAAPSVFIFPPSDEQLKSGTASVVCLLNNFYPREAKVQWKVDNALQSGNSQESVTEQDSKDSTYSLSSTLTLSKADYEKHKVYACEVTHQGLSSPVTKSFNRGEC heavy: QVQLVESGGGVVQPGRSLRLSCAASGFTFSNAWMHWVRQAPGKGLEWVAQIKAKSNNYATYYAESVKGRFTISRDDSKNSLYLQMNSLKTEDTAVYYCRYVHYGAYYGVDAWGQGTTVTVSSASTKGPSVFPLAPSSKSTSGGTAALGCLVKDYFPEPVTVSWNSGALTSGVHTFPAVLQSSGLYSLSSVVTVPSSSLGTQTYICNVNHKPSNTKVDKKVEPKSCDKTHTCPPCPAPEAAGGPSVFLFPPKPKDTLMISRTPEVTCVVVDVSHEDPEVKFNWYVDGVEVHNAKTKPREEQYASTYRVVSVLTVLHQDWLNGKEYKCKVSNKALPAPIEKTISKAKGQPREPQVYTLPPSRCELTKNQVSLSCAVKGFYPSDIAVEWESNGQPENNYKTTPPVLDSDGSFFLVSKLTVDKSRWQQGNVFSCSVMHEALHNHYTQKSLSLSPDYKDDDDK EPKSSDKTHTCPPCPAPELLGGPSVFLFPPKPKDTLMISRTPEVTCVVVDVSHEDPEVKFNWYVDGVEVHNAKTKPREEQYNSTYRVVSVLTVLHQDWLNGKEYKCKVSNKALPAPIEKTISKAKGQPREPQVCTLPPSRDELTKNQVSLWCLVKGFYPSDIAVEWESNGQPENNYKTTPPVLDSDGSFFLYSKLTVDKSRWQQGNVFSCSVMHEALHNRYTQKSLSLSP", "ratio of amounts bound (altered form/GLS3000)": 0.65}
{"binder": "GLS3000 H34K one-arm antibody (antibody, human IgG1, kappa, L234A L235A, N297A, name in Kabat numbering) light: DIVMTQSPLSLPVTPGEPASISCRSSQSLVHSNRNTYLKWYQQKPGQAPRLLIYKVSNRFSGVPDRFSGSGSGTDFTLKISRVEAEDVGVYYCGQGTQVPYTFGQGTKLEIKRTVAAPSVFIFPPSDEQLKSGTASVVCLLNNFYPREAKVQWKVDNALQSGNSQESVTEQDSKDSTYSLSSTLTLSKADYEKHKVYACEVTHQGLSSPVTKSFNRGEC heavy: QVQLVESGGGVVQPGRSLRLSCAASGFTFSNAWMHWVRQAPGKGLEWVAQIKAKSNNYATYYAESVKGRFTISRDDSKNSLYLQMNSLKTEDTAVYYCRYVHYGAYYGVDAWGQGTTVTVSSASTKGPSVFPLAPSSKSTSGGTAALGCLVKDYFPEPVTVSWNSGALTSGVHTFPAVLQSSGLYSLSSVVTVPSSSLGTQTYICNVNHKPSNTKVDKKVEPKSCDKTHTCPPCPAPEAAGGPSVFLFPPKPKDTLMISRTPEVTCVVVDVSHEDPEVKFNWYVDGVEVHNAKTKPREEQYASTYRVVSVLTVLHQDWLNGKEYKCKVSNKALPAPIEKTISKAKGQPREPQVYTLPPSRCELTKNQVSLSCAVKGFYPSDIAVEWESNGQPENNYKTTPPVLDSDGSFFLVSKLTVDKSRWQQGNVFSCSVMHEALHNHYTQKSLSLSPDYKDDDDK EPKSSDKTHTCPPCPAPELLGGPSVFLFPPKPKDTLMISRTPEVTCVVVDVSHEDPEVKFNWYVDGVEVHNAKTKPREEQYNSTYRVVSVLTVLHQDWLNGKEYKCKVSNKALPAPIEKTISKAKGQPREPQVCTLPPSRDELTKNQVSLWCLVKGFYPSDIAVEWESNGQPENNYKTTPPVLDSDGSFFLYSKLTVDKSRWQQGNVFSCSVMHEALHNRYTQKSLSLSP", "ratio of amounts bound (altered form/GLS3000)": 2.17}
{"binder": "GLS3000 H34L one-arm antibody (antibody, human IgG1, kappa, L234A L235A, N297A, name in Kabat numbering) light: DIVMTQSPLSLPVTPGEPASISCRSSQSLVHSNRNTYLLWYQQKPGQAPRLLIYKVSNRFSGVPDRFSGSGSGTDFTLKISRVEAEDVGVYYCGQGTQVPYTFGQGTKLEIKRTVAAPSVFIFPPSDEQLKSGTASVVCLLNNFYPREAKVQWKVDNALQSGNSQESVTEQDSKDSTYSLSSTLTLSKADYEKHKVYACEVTHQGLSSPVTKSFNRGEC heavy: QVQLVESGGGVVQPGRSLRLSCAASGFTFSNAWMHWVRQAPGKGLEWVAQIKAKSNNYATYYAESVKGRFTISRDDSKNSLYLQMNSLKTEDTAVYYCRYVHYGAYYGVDAWGQGTTVTVSSASTKGPSVFPLAPSSKSTSGGTAALGCLVKDYFPEPVTVSWNSGALTSGVHTFPAVLQSSGLYSLSSVVTVPSSSLGTQTYICNVNHKPSNTKVDKKVEPKSCDKTHTCPPCPAPEAAGGPSVFLFPPKPKDTLMISRTPEVTCVVVDVSHEDPEVKFNWYVDGVEVHNAKTKPREEQYASTYRVVSVLTVLHQDWLNGKEYKCKVSNKALPAPIEKTISKAKGQPREPQVYTLPPSRCELTKNQVSLSCAVKGFYPSDIAVEWESNGQPENNYKTTPPVLDSDGSFFLVSKLTVDKSRWQQGNVFSCSVMHEALHNHYTQKSLSLSPDYKDDDDK EPKSSDKTHTCPPCPAPELLGGPSVFLFPPKPKDTLMISRTPEVTCVVVDVSHEDPEVKFNWYVDGVEVHNAKTKPREEQYNSTYRVVSVLTVLHQDWLNGKEYKCKVSNKALPAPIEKTISKAKGQPREPQVCTLPPSRDELTKNQVSLWCLVKGFYPSDIAVEWESNGQPENNYKTTPPVLDSDGSFFLYSKLTVDKSRWQQGNVFSCSVMHEALHNRYTQKSLSLSP", "ratio of amounts bound (altered form/GLS3000)": 0.59}
